Measured values reported in article PMC11078986, “Structural basis and synergism of ATP and Na^+ activation in bacterial K^+ uptake system KtrAB” (Nature Communications, 2024).

T1: BsKtrA (Bacillus subtilis, UniProt O32080)
T1 construct: gene ktrA; tag-less BsKtrA (octamer) in the BsKtrAB complex; with BsKtrB
T1 sequence (O32080 1-222): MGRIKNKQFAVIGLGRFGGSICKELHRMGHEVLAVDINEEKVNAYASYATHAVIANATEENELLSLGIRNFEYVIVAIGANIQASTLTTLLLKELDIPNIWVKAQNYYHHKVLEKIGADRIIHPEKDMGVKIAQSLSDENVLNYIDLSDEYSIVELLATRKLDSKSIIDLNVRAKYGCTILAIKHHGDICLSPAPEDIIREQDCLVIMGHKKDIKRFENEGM
T1 sequence (O32081 1-445 partner): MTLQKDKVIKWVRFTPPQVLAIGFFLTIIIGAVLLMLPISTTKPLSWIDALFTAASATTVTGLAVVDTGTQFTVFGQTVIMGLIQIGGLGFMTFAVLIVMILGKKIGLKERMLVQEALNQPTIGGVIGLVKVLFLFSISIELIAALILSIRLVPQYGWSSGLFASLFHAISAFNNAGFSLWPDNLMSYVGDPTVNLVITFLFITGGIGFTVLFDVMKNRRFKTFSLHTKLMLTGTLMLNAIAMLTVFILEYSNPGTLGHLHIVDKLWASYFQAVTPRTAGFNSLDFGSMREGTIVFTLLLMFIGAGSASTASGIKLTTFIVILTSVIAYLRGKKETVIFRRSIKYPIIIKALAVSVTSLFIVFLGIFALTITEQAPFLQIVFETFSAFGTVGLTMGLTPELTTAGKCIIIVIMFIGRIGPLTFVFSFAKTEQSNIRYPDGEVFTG

B1: KtrA from Bacillus subtilis (BsKtrA) (natural protein)
chain: T1 sequence (O32080 1-222)
notes: KtrA, regulatory RCK subunit of the K+ uptake system KtrAB, Bacillus subtilis; tag-less; Octameric ring (tetramer of homodimers); Used with ATP, with ADP or as apo protein; also called ATP-BsKtrA; ADP-BsKtrA; source: E. coli BL21(DE3), purified (anion exchange, N6-hexyl-ATP agarose, dialysis, SEC)
B2: KtrB from Bacillus subtilis (BsKtrB) (natural protein)
chain: T1 sequence (O32081 1-445 partner)
notes: KtrB, transmembrane K+ permeation subunit of the K+ uptake system KtrAB, Bacillus subtilis; Membrane protein dimer in detergent (DDM, or 6-cyclohexyl-1-hexyl-beta-D-maltoside for cryo-EM); source: E. coli C43 (DE3), purified (DDM extraction, Ni-NTA, TEV cleavage, second Ni-NTA, SEC); not shown: His tag, N-terminal, cleaved

How the values were obtained:
BsKtrA = target: T1, BsKtrA; assay: cryo-EM structure of ADP-BsKtrAB at […] Å (Structure III); type: binding
[1] = target: the molecule itself; assay: cryo-EM structure; ATP-BsKtrAB (Structures I, II, IIa, IIb); BsKtrA and BsKtrB mixed 2:1 with 1 mM ATP, complex taken from SEC; Cryo-EM Buffer (20 mM Tris-HCl pH 8.0, 70 mM NaCl, 30 mM KCl, 0.75 mM 6-cyclohexyl-1-hexyl-beta-D-maltoside) with 1 mM ATP and 2 mM MgCl2, or 1 mM ATP, 2 mM EDTA and 1 mM EGTA; KtrB2A8B2 assembly
[2] = target: B2; assay: as above; conditions: both partners purified

`Nc1ncnc2c1ncn2[C@@H]1O[C@H](COP(=O)(O)OP(=O)(O)O)[C@@H](O)[C@H]1O` [ADP] was tested, and the “cryo-EM structure of ADP-BsKtrAB at 2.8 Å (Structure III)” value (BsKtrA) was “ATP and ADP share the same binding site located at the intra-dimer interface of KtrA RCK_N subdomains”.

With B1 the “stoichiometry N” value [1] was 8 and the binding result [2] was “binds”.

B2 was tested, and the “stoichiometry N” value [1] was 2.
